Test results reported in the Human Domainome abundance scans (Beltran et al. 2025).
± gives the uncertainty stated by the source.

B1: Protein maelstrom homolog, residues 3 to 71; numbered along this chain, Q96JY0 (parent)
chain: NRKASRNAYYFFVQEKIPELRRRGLPVARVADAIPYCSSDWALLREEEKEKYAEMAREWRAAQGKDPGP
B2: Homeobox protein cut-like 1, residues 941 to 1008; numbered along this chain, P39880 (parent)
chain: QEVDTIELTRQVKEKLAKNGICQRIFGEKVLGLSQGSVSDMLSRPKPWSKLTQKGREPFIRMQLWLNG

Variants of: B1
Assay: abundance fitness (aPCA) (normalised: wild type 0, dead -1); higher = more abundant; growth selection in yeast, the domain comes from the species named
Settings: Homo sapiens

| Variant | abundance fitness |
| --- | --- |
| A4N | -0.371 ± 0.32 |
| A4G | 0.032 ± 0.056 |
| A4H | -1.04 ± 0.39 |
| A4V | -0.001 ± 0.085 |
| A4S | 0 ± 0.092 |
| A4R | -0.09 ± 0.057 |
| A4L | 0.048 ± 0.08 |
| A4E | 0.159 ± 0.11 |
| A4K | -0.095 ± 0.13 |
| A4P | -0.246 ± 0.072 |
| A4M | -0.011 ± 0.13 |
| A4D | -0.462 ± 0.23 |
| A4W | -0.262 ± 0.096 |
| A4T | 0.049 ± 0.17 |
| A4C | -0.395 ± 0.15 |
| R2I | 0.162 ± 0.075 |
| R2A | -0.407 ± 0.085 |
| R2Y | 0.078 ± 0.12 |
| R2H | 0.058 ± 0.1 |
| R2P | 0.06 ± 0.085 |
| R2W | -0.141 ± 0.058 |
| R2C | 0.123 ± 0.09 |
| R2D | 0.122 ± 0.1 |
| R2M | 0.093 ± 0.067 |
| R2F | -0.095 ± 0.16 |
| R2V | -0.288 ± 0.071 |

| Variant | abundance fitness |
| --- | --- |
| R2S | 0.091 ± 0.032 |
| R2T | 0.126 ± 0.066 |
| R2K | 0.045 ± 0.09 |
| R2E | 0.124 ± 0.078 |
| R2L | -0.013 ± 0.045 |
| R2G | 0.021 ± 0.054 |
| R2N | -0.2 ± 0.12 |
| Y9V | -0.222 ± 0.074 |
| Y9C | -0.289 ± 0.16 |
| Y9Q | -0.033 ± 0.11 |
| Y9S | -0.513 ± 0.1 |
| Y9T | -0.615 ± 0.12 |
| Y9N | -0.168 ± 0.17 |
| Y9A | -0.53 ± 0.14 |
| Y9G | -0.61 ± 0.074 |
| Y9W | -0.242 ± 0.1 |
| Y9K | -0.037 ± 0.11 |
| Y9P | -0.338 ± 0.08 |
| Y9D | -0.185 ± 0.22 |
| Y9E | 0.001 ± 0.11 |
| Y9R | -0.239 ± 0.06 |
| Y9F | 0.18 ± 0.18 |
| Y9L | -0.007 ± 0.035 |
| Y9M | 0.026 ± 0.08 |
| Y9I | -0.09 ± 0.13 |
| Y9H | -0.137 ± 0.11 |

| Variant | abundance fitness |
| --- | --- |
| S5K | -0.206 ± 0.28 |
| S5G | -0.03 ± 0.084 |
| S5M | -0.118 ± 0.18 |
| S5R | -0.228 ± 0.11 |
| S5Q | -0.088 ± 0.15 |
| S5A | 0.013 ± 0.12 |
| S5L | -0.593 ± 0.3 |
| S5T | -0.202 ± 0.13 |
| S5D | 0.12 ± 0.17 |
| S5Y | -0.36 ± 0.28 |
| S5E | 0.137 ± 0.34 |
| S5P | -0.24 ± 0.16 |
| S5I | 0.278 ± 0.32 |
| S5C | -0.655 ± 0.34 |
| S5V | -0.087 ± 0.1 |
| R6K | -0.419 ± 0.26 |
| R6E | 0.061 ± 0.17 |
| R6V | -0.467 ± 0.24 |
| R6M | -0.064 ± 0.17 |
| R6Y | -0.175 ± 0.34 |
| R6L | 0.046 ± 0.045 |
| R6C | -0.123 ± 0.18 |
| R6Q | -0.447 ± 0.24 |
| R6P | -0.179 ± 0.14 |
| R6T | 0.109 ± 0.19 |
| R6S | -0.228 ± 0.15 |

| Variant | abundance fitness |
| --- | --- |
| R6A | -0.097 ± 0.15 |
| K3N | -0.001 ± 0.19 |
| A8P | -0.221 ± 0.083 |
| A8I | -0.27 ± 0.21 |
| A8C | -0.269 ± 0.24 |
| A8Y | -0.696 ± 0.17 |
| A8L | -0.783 ± 0.11 |
| A8M | -0.357 ± 0.061 |
| A8V | -0.796 ± 0.12 |
| A8F | -0.936 ± 0.46 |
| A8N | -0.429 ± 0.29 |
| A8H | -0.498 ± 0.21 |
| A8D | -0.046 ± 0.1 |
| A8Q | -0.304 ± 0.082 |
| A8R | -0.385 ± 0.072 |
| A8E | -0.294 ± 0.14 |
| A8K | -0.483 ± 0.096 |
| A8S | -0.177 ± 0.088 |
| A8T | -0.325 ± 0.11 |
| A8G | -0.057 ± 0.074 |
| N7D | 0.212 ± 0.17 |
| N7L | -0.168 ± 0.061 |
| N7W | -0.257 ± 0.068 |
| N7S | 0.045 ± 0.071 |
| N7P | -0.285 ± 0.13 |
| N7Q | -0.147 ± 0.081 |

| Variant | abundance fitness |
| --- | --- |
| N7K | -0.05 ± 0.092 |
| N7T | 0 ± 0.12 |
| N7G | 0.01 ± 0.063 |
| N7H | -0.267 ± 0.13 |
| N7I | -0.355 ± 0.22 |
| N7F | -0.233 ± 0.26 |
| N7A | -0.993 ± 0.28 |
| N7Y | -0.44 ± 0.18 |
| N7C | -0.497 ± 0.17 |
| N7M | 0.015 ± 0.071 |
| N7V | -0.535 ± 0.068 |
| Y10D | 0.185 ± 0.18 |
| Y10K | -0.454 ± 0.08 |
| Y10A | -0.403 ± 0.075 |
| Y10F | 0.085 ± 0.14 |
| Y10C | -0.643 ± 0.11 |
| Y10E | -0.065 ± 0.08 |
| Y10L | -0.332 ± 0.072 |
| Y10I | -0.657 ± 0.2 |
| Y10N | 0.15 ± 0.29 |
| Y10G | -0.5 ± 0.07 |
| Y10M | -0.361 ± 0.09 |

Variants of: B2
Assay: as above
Settings: Homo sapiens

| Variant | abundance fitness |
| --- | --- |
| D40P | -0.102 ± 0.071 |
| D40K | -0.352 ± 0.091 |
| D40R | -0.514 ± 0.078 |
| D40H | -0.118 ± 0.077 |
| D40W | -0.155 ± 0.11 |
| D40V | -0.339 ± 0.053 |
| D40S | -0.127 ± 0.052 |
| P45G | -0.309 ± 0.07 |
| P45R | -0.184 ± 0.051 |
| P45K | -0.161 ± 0.089 |
| P45Y | -0.282 ± 0.077 |
| K29M | -0.254 ± 0.078 |
| K29H | -0.121 ± 0.08 |
| K29F | -0.524 ± 0.11 |
| K29W | -0.273 ± 0.072 |
| K29N | 0.365 ± 0.15 |
| K29E | 0.039 ± 0.064 |
| T52M | -0.157 ± 0.082 |
| T52L | -0.018 ± 0.053 |
| G68R | -0.14 ± 0.066 |
| G68L | -0.343 ± 0.12 |

| Variant | abundance fitness |
| --- | --- |
| G68K | -0.091 ± 0.11 |
| G68Q | -0.212 ± 0.23 |
| G68D | 0.013 ± 0.095 |
| G68S | -0.229 ± 0.072 |
| K15C | -0.119 ± 0.095 |
| K15H | -0.259 ± 0.11 |
| L33R | -0.213 ± 0.059 |
| M62N | -1.08 ± 0.22 |
| M62W | -0.335 ± 0.075 |
| M62H | -1.33 ± 0.4 |
| L16R | -0.033 ± 0.056 |
| L16G | -0.015 ± 0.076 |
| L16Q | -0.102 ± 0.074 |
| L16Y | -0.278 ± 0.1 |
| L16I | -0.198 ± 0.13 |
| G36Q | 0.039 ± 0.078 |
| G36C | -0.02 ± 0.066 |
| G36N | -0.014 ± 0.088 |
| G36K | -0.026 ± 0.09 |
| N19Y | -0.331 ± 0.12 |
